Assay [1] concerns the target T1, Human ADM 1-52 bioactivity at human recombinant adrenomedullin receptor (CRLR+RAMP3) in CHO-K1 cells (Homo sapiens, UniProt P35318).
T1 construct: comprises the amino acids 95 to 146 of pre-proADM; FAST-027C (receptor cell line); host or cells: CHO-K1 cells transfected with human CRLR+RAMP3
T1 sequence (P35318 95-146): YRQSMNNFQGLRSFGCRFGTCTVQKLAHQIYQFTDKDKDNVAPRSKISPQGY
Briefly: Human recombinant Adrenomedullin receptor cAMP functional assay (Adrenomedullin Bioassay), human ADM as agonist. In kind it is cell-based. Particulars: in the presence of 5.63 nM Human ADM 1-52; antibody up to 100 μg/ml. As to the method:
The effect of selected ADM-antibodies on ADM-bioactivity was tested in an human recombinant Adrenomedullin receptor cAMP functional assay (Adrenomedullin Bioassay).
Testing of Antibodies Targeting Human or Mouse Adrenomedullin in Human Recombinant Adrenomedullin Receptor cAMP Functional Assay (Adrenomedullin Bioassay)
Receptor: Adrenomedullin (CRLR+RAMP3)
Receptor Accession Number Cell line: CRLR: U17473; RAMP3: AJ001016
Dose response curves were performed in parallel with the reference agonists (hADM or mADM).
For antagonist testing, 6 μl of the reference agonist (human (5.63 nM) or mouse (0.67 nM) adrenomedullin) was mixed with 6 μl of the test samples at different antagonist dilutions; or with 6 μl buffer. After incubation for 60 min at room temperature, 12 μl of cells (2,500 cells/well) were added. The plates were incubated for 30 min at room temperature.
The anti-h-ADM antibodies (NT-H, MR-H, CT-H) were tested for antagonist activity in human recombinant adrenomedullin receptor (FAST-027C) cAMP functional assay in the presence of 5.63 nM Human ADM 1-52, at the following final antibody concentrations: 100 μg/ml, 20 μg/ml, 4 μg/ml, 0.8 μg/ml, 0.16 μg/ml.

In assay [2] the target is T2, hADM (Homo sapiens, UniProt P35318).
T2 construct: comprises the amino acids 95 to 146 of pre-proADM; purchased BACHEM AG, Switzerland
T2 sequence (P35318 95-146): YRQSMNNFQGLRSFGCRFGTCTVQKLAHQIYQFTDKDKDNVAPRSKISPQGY
As to the kind of experiment: hADM sandwich luminescence immunoassay, dose/signal curve in presence of antibody. Particulars: 100 μg/mL antibody. As to the method: The assay was calibrated, using dilutions of hADM
Unbound tracer was removed by washing 5 times (each 1 ml) with washing solution (20 mM PBS, pH 7.4, 0.1% Triton X-100).
Tube-Bound Chemiluminescence was Measured by Using the LB 953

B1: NT-H: mouse monoclonal antibody raised against human ADM region 1-21 (SEQ ID: 15) (antibody, V domains shown)
VH: QVQLQQSGAELMKPGASVKISCKATGYTFSRYWIEWVKQRPGHGLEWIGEILPGSGSTNYNEKFKGKATITADTSSNTAYMQLSSLTSEDSAVYYCTEGYEYDGFDYWGQGTTLTVSS
VL: DVLLSQTPLSLPVSLGDQATISCRSSQSIVYSNGNTYLEWYLQKPGQSPKLLIYRVSNRFSGVPDRFSGSGSGTDFTLKISRVEAEDLGVYYCFQGSHIPYTFGGGTKLEIK
B1: in assay [1], the “Maximal inhibition of ADM bioactivity (ADM-Bioassay) (%)” value turned out to be 38%. Also, the “Effect on the hADM immunoassay (dose/signal curve)” value in assay [2] is on record as “did not affect”.

For the origin of these results see US9402900B2, “Methods of modulating adrenomedullin by administering an anti-adrenomedullin (ADM) antibody” (ADRENOMED AG, priority 2011, dated 2016).
